Experimental data as given in patent CN114560932A (MILITARY MEDICINE RES INSTITUTE OF CHINESE PEOPLE …, dated 2022).

Experiments:
[1] = target: 鼠疫菌F1重组蛋白 (Yersinia pestis, UniProt P26948 22-170)
[2] = target: 鼠疫杆菌V重组蛋白 (Yersinia pestis, UniProt P0C7U7 1-326); assay: ELISA, antigen coated at 2 μg/mL, mhS1 at 20 μg/mL, goat anti-human IgG-HRP
Sequence of 鼠疫杆菌V重组蛋白 (P0C7U7 whole entry): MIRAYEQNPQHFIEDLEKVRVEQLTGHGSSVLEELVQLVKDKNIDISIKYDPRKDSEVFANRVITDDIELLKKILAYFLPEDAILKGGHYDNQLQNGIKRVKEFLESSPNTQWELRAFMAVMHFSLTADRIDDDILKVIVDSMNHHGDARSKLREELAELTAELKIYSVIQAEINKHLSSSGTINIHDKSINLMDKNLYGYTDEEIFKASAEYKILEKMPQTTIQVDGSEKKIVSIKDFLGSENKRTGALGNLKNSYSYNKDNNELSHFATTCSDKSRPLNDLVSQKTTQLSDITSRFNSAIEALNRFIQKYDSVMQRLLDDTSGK

Sequence of 鼠疫菌F1重组蛋白 (P26948 22-170 limits assumed): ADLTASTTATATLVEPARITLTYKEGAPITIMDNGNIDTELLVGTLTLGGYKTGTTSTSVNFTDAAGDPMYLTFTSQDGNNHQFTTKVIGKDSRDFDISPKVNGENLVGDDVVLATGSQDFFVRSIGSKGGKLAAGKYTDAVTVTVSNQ

B1: 人鼠嵌合全抗体mhS1 (antibody, V domains shown)
VH: QVQLKESGAELVKPGASVKLSCTASGFNIKDTYIHWMKQRPEQGLEWIGRIDPANGHSIYDPKFQGKATITADASSNAAYLQLSSLTSEDTAVYYCARSYGYEKRYAMDYWGQGTSVTVSS
VL: DIVMTQTTSSLSASLGDRVTISCSASQGISNYLNWYQQKPDGTVKVLIYYTSTLHSGVPSRFSGSGSGTDYSLTISNLEPEDIATYYCQQYSKLPWTFGGGTKLEMKR
- EC50 [1]: 11.4 pM
- binding result [2]: no binding (tested: 20μg/mL)
